Reference: US20100286027A1, “ANTI-BACTERIAL COMPOSITIONS” (priority 2008, published 2010)
Values after ≈ are worked out from the molar mass of the structure shown.

Tests used:
E. coli NB27004 = assay: MIC against aerobic gram negative bacteria; assay type: cell-based, Escherichia coli
[1] = tested on: E. coli NB27005* (TolC efflux pump mutant); assay: MIC against aerobic gram negative bacteria, efflux pump mutant; assay type: cell-based, Escherichia coli
[2] = tested on: P. aeruginosa NB52020* (mexAB/oprM efflux pump mutant); assay: as above; assay type: cell-based, Pseudomonas aeruginosa
P. aeruginosa NB52019 = assay: MIC against aerobic gram negative bacteria; assay type: cell-based, Pseudomonas aeruginosa
[3] = tested on: H. influenzae NB65027-CDS0021* (TolC efflux pump mutant); assay: MIC against aerobic gram negative bacteria, efflux pump mutant; assay type: cell-based, Haemophilus influenzae
H. influenzae NB65027 [4] = assay: microbe, parasite or virus in culture; conditions: Haemophilus influenzae, NB65027, read-out: minimal inhibitory concentration (MIC)
[5] = tested on: Pseudomonas aeruginosa (27853); assay: BacTiter-Glo bacterial ATP content viability assay; conditions: gram −, +/− SD, n = 3, >100 = activity detected but <50% inhibition
[6] = tested on: Salmonella choleraesuis (13076); assay: BacTiter-Glo bacterial ATP content viability assay; conditions: gram −, +/− SD, n = 3, >100 = activity detected but <50% inhibition
[7] = tested on: Listeria monocytogenes (7644); assay: BacTiter-Glo bacterial ATP content viability assay; conditions: Listeria monocytogenes (7644), gram +; +/− SD, n = 3; >100 = activity detected but <50% inhibition
L. monocytogenes = assay: Bacterial growth inhibition (FIG. 15); assay type: cell-based, Listeria monocytogenes; conditions: FIG. 15 Panel C
Escherichia coli (25922) = assay: BacTiter-Glo bacterial ATP content viability assay; conditions: gram −, +/− SD, n = 3, >100 = activity detected but <50% inhibition
[8] = tested on: Stenotrophomonas maltophilia (17666); assay: BacTiter-Glo bacterial ATP content viability assay; conditions: gram −, +/− SD, n = 3, >100 = activity detected but <50% inhibition
E. coli = assay: Bacterial growth inhibition (FIG. 15); assay type: cell-based, Escherichia coli; conditions: FIG. 15 Panel B
[9] = tested on: Klebsiella pneumoniae (700603); assay: BacTiter-Glo bacterial ATP content viability assay; conditions: gram −, +/− SD, n = 3, >100 = activity detected but <50% inhibition
H. influenzae NB65027 [10] = conditions: aerobic gram negative
Bacillus Subtilis (6633) = assay: BacTiter-Glo bacterial ATP content viability assay; conditions: Bacillus Subtilis (6633), gram +; +/− SD, n = 3; >100 = activity detected but <50% inhibition
[11] = tested on: Staphylococcus aureus (29213); assay: BacTiter-Glo bacterial ATP content viability assay; conditions: Staphylococcus aureus (29213), gram +; +/− SD, n = 3; >100 = activity detected but <50% inhibition
[12] = tested on: lawn of the indicated bacteria; assay: Agar diffusion assay; conditions: FIG. 11 Panel D; 0.5 mg/ml in sterile PBS per well
[13] = tested on: Enterococcus faecalis (29212); assay: BacTiter-Glo bacterial ATP content viability assay; conditions: Enterococcus faecalis (29212), gram +; +/− SD, n = 3; >100 = activity detected but <50% inhibition
Escherichia coli (8739) = assay: BacTiter-Glo bacterial ATP content viability assay; conditions: gram −, +/− SD, n = 3, >100 = activity detected but <50% inhibition
[14] = tested on: Streptococcus pneumoniae (49619); assay: BacTiter-Glo bacterial ATP content viability assay; conditions: gram +, +/− SD, n = 3, >100 = activity detected but <50% inhibition
[15] = Escherichia coli, read-out: minimal inhibitory concentration (MIC)
[16] = Pseudomonas aeruginosa, read-out: minimal inhibitory concentration (MIC)

Molecule: CN(C)[C@@H]1C(O)=C(C(N)=O)C(=O)[C@@]2(O)C(O)=C3C(=O)c4c(O)cccc4[C@@](C)(O)[C@H]3C[C@@H]12 [Tetracycline, reference compound]
- MIC (E. coli NB27004; [15]): 4 mg/L (≈ 9 µM)
- MIC [1, 15]: 0.5 mg/L (≈ 1.13 µM)
- MIC [2, 16]: 1 mg/L (≈ 2.25 µM)
- MIC (P. aeruginosa NB52019; [16]): 32 mg/L (≈ 72 µM)
- MIC ([3]; Haemophilus influenzae, read-out: minimal inhibitory concentration (MIC)): 0.5 mg/L (≈ 1.13 µM)
- MIC (H. influenzae NB65027 [4]): 0.5 mg/L (≈ 1.13 µM)

B1: Nod1: purified recombinant LRR domain of Nod1; human NOD1-LRR is SEQ ID NO: 4 (protein, listed as Homo sapiens)
chain: NKDHFQFTNLFLCGLLSKAKQKLLRHLVPAAALRRKRKALWAHLFSSLRGYLKSLPRVQVESFNQVQAMPTFIWMLRCIYETQSQKVGQLAARGICANYLKLTYCNACSADCSALSFVLHHFPKRLALDLDNNNLNDYGVRELQPCFSRLTVLRLSVNQITDGGVKVLSEELTKYKIVTYLGLYNNQITDVGARYVTKILDECKGLTHLKLGKNKITSEGGKYLALAVKNSKSISEVGMWGNQVGDEGAKAFAEALRNHPSLTTLSLASNGISTEGGKSLARALQQNTSLEILWLTQNELNDEVAESLAEMLKVNQTLKHLWLIQNQITAKGTAQLADALQSNTGITEICLNGNLIKPEEAKVYEDEKRIICF
- antibacterial activity by bacterial ATP content (IC50), [LRR domain] [5]: >100 microgram/ml
- minimal inhibitory concentration (MIC) (E. coli NB27004): >128 microgram/ml
- antibacterial activity by bacterial ATP content (IC50), [LRR domain] [6]: >100 microgram/ml
- antibacterial activity by bacterial ATP content (IC50), [LRR domain] [7]: 32.0 +/− 2.1 microgram/ml
- L. monocytogenes growth (L. monocytogenes): inhibited
- minimal inhibitory concentration (MIC) ([1]; aerobic gram negative, E. coli NB27005*, TolC efflux pump mutant strain): 32 microgram/ml
- antibacterial activity by bacterial ATP content (IC50), [LRR domain] (Escherichia coli (25922)): >100 microgram/ml
- antibacterial activity by bacterial ATP content (IC50), [LRR domain] [8]: >100 microgram/ml
- E. coli growth (E. coli): inhibited
- antibacterial activity by bacterial ATP content (IC50), [LRR domain] [9]: 30.8 +/− 4.9 microgram/ml
- minimal inhibitory concentration (MIC) (H. influenzae NB65027 [10]): >128 microgram/ml
- antibacterial activity by bacterial ATP content (IC50), [LRR domain] (Bacillus Subtilis (6633)): 15.5 +/− 12.0 microgram/ml
- minimal inhibitory concentration (MIC) ([2]; aerobic gram negative, P. aeruginosa NB52020*, mexAB/oprM efflux pump mutant strain): >128 microgram/ml
- minimal inhibitory concentration (MIC) (P. aeruginosa NB52019): >128 microgram/ml
- antibacterial activity by bacterial ATP content (IC50), [LRR domain] [11]: 111.3 +/− 13.0 microgram/ml
- anti-bacterial activity by agar diffusion assay [12]: Anti-bacterial activity
- minimal inhibitory concentration (MIC) ([3]; aerobic gram negative, H. influenzae NB65027-CDS0021*, TolC efflux pump mutant strain): 4 microgram/ml
- antibacterial activity by bacterial ATP content (IC50), [LRR domain] [13]: >100 microgram/ml
- antibacterial activity by bacterial ATP content (IC50), [LRR domain] (Escherichia coli (8739)): 29.0 +/− 2.8 microgram/ml
- antibacterial activity by bacterial ATP content (IC50), [LRR domain] [14]: 13.5 +/− 4.9 microgram/ml
